For this assay, the target named is T1, GST-tagged yeast Sin3 PAH2 protein (residues 402-473) (S. cerevisiae, UniProt P22579 402-473).
T1 sequence (looked up): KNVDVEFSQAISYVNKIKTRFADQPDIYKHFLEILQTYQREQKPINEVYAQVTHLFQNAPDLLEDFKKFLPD
Put plainly: fluorescence polarisation. For orientation: Polarisation of emitted light reports the rotation of a fluorescent probe.

B1: unlabeled Ume6 SID peptide (Ume6 residues 516-531) (peptide, UniProt P39001 516-531, looked up)
peptide: LDDDLGTAAAVLSNMR
B1 yielded an IC50 of 53.3 ± 2.4 µM and a Ki of 11.4 µM.

Usually IC50 stands for the concentration that gives 50% inhibition. Lower therefore signals greater potency in that assay. One may read the Ki as a measure of affinity in units of concentration, obtained from inhibition or displacement.

Source of the values: paper doi:10.1101/2022.12.07.519454 (bioRxiv, 2022).
